Series [1] concerns biotinyl-Phe-oxazolone. Put plainly: self-aminoacylation, catalytic enhancement (BFO) (fold over background); higher = more active; k-Seq, kA / k0A0; sequences stand for … in GGGAAUGGAUCCACAUCUACGAAUUC…UUCACUGCAGACUUGACGAAGCUG
The gist of the method: (§1)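 Mutagenized RNA pools with a 21-nt variable region (0.43 μM) were reacted with each biotinyl-aminoacyl-oxazolone at 2–1250 μM for 90 minutes at room temperature, in 50 μL HEPES/NaCl/KCl/MgCl2/CaCl2 buffer containing 5% acetonitrile at pH 6.9–7.0. RNA captured on streptavidin was quantified by triplicate qPCR and by Illumina sequencing. The fraction reacted for each sequence was fit to a pseudo-first-order model with bootstrapping, and catalytic enhancement is the median kA divided by the uncatalyzed rate, taken as the low-activity peak of a bimodal Gaussian fit.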

Series [2] relates to biotinyl-Ile-oxazolone. Briefly: self-aminoacylation, catalytic enhancement (BIO) (fold over background); higher = more active; k-Seq, kA / k0A0; sequences stand for … in GGGAAUGGAUCCACAUCUACGAAUUC…UUCACUGCAGACUUGACGAAGCUG
The gist of the method:
as §1

Series [3] concerns biotinyl-Met-oxazolone. Briefly: self-aminoacylation, catalytic enhancement (BMO) (fold over background); higher = more active; k-Seq, kA / k0A0; sequences stand for … in GGGAAUGGAUCCACAUCUACGAAUUC…UUCACUGCAGACUUGACGAAGCUG
In short, it runs like this:
as §1

For series [4], the system named is biotinyl-Val-oxazolone. Briefly: self-aminoacylation, catalytic enhancement (BVO) (fold over background); higher = more active; k-Seq, kA / k0A0; sequences stand for … in GGGAAUGGAUCCACAUCUACGAAUUC…UUCACUGCAGACUUGACGAAGCUG
In short, it runs like this: as §1

Series [5] deals with biotinyl-Leu-oxazolone. Briefly: self-aminoacylation, catalytic enhancement (BLO) (fold over background); higher = more active; k-Seq, kA / k0A0; sequences stand for … in GGGAAUGGAUCCACAUCUACGAAUUC…UUCACUGCAGACUUGACGAAGCUG
In short, it runs like this: as §1

Series [6] relates to biotinyl-Trp-oxazolone. Briefly: self-aminoacylation, catalytic enhancement (BWO) (fold over background); higher = more active; k-Seq, kA / k0A0; sequences stand for … in GGGAAUGGAUCCACAUCUACGAAUUC…UUCACUGCAGACUUGACGAAGCUG
In short, it runs like this:
as §1

This sample holds only a part of the variants without activity.

Regarding “CCACACUUCAAGCAAUGGGUC [Fam1B.1 aminoacylation ribozyme variant]”, the self-aminoacylation in series [1] was determined as 0.841; in series [2], 0.78; in series [3], 0.677; in series [4] it was 0.793; in series [5], 0.677; in series [6] it was 0.627.

Consider “GGGUUUGCUAAUAGUCGCAAG [Fam3.1 aminoacylation ribozyme variant]”, for which the self-aminoacylation worked out at 12.3 in series [1]; 2.32 in series [2]; 1.89 in series [3]; 2.01 in series [4]; 2.45 in series [5]; 6.82 in series [6].

For the sequence “AUUACCCUGGUAAUCGAGUGC [Fam2.1 aminoacylation ribozyme variant]”, the self-aminoacylation in series [1] turned out to be 1.38; in series [2] it was 0.957; in series [3], 1.12; in series [4], 0.801; in series [5], 1.04; in series [6], 0.656.

Regarding “AUUAACCUAGGUCAUCGGGUA [Fam2.2 aminoacylation ribozyme variant]”, the self-aminoacylation came to 262 in series [1]; 17.7 in series [2]; 33.2 in series [3]; 13.9 in series [4]; 46.4 in series [5]; 20.3 in series [6].

On to “GCACAGUUCAAGCAAUCGGUC [Fam1B.1 aminoacylation ribozyme variant]”, for which the self-aminoacylation in series [1] worked out at 4.42; in series [2], 2.44; in series [3] it was 1.98; in series [4], 2.07; in series [5], 2.04; in series [6], 4.48.

For the sequence “AUUCACCUAGGUCACCGGCUG [Fam2.2 aminoacylation ribozyme variant]”, the self-aminoacylation in series [1] turned out to be 12.9; in series [2] it was 2.51; in series [3] it was 2.27; in series [4] it was 2.36; in series [5] it was 3.16; in series [6], 2.12.

Consider “CGGCUUCAAACAAUCGGUCUG [Fam1A.1 aminoacylation ribozyme variant]”, for which the self-aminoacylation in series [1] was found to be 106; in series [2], 1.41; in series [3], 1.62; in series [4] it was 1.49; in series [5], 2.46; in series [6], 45.1.

Take “AUUCGCCUAUGUCAUCGGGUG [Fam2.2 aminoacylation ribozyme variant]”: the self-aminoacylation in series [1] came to 30.7; in series [2], 3.35; in series [3], 5.1; in series [4], 3.16; in series [5] it was 6.54; in series [6], 4.65.

“CCACACUUCAUGCAAUUGGUC [Fam1B.1 aminoacylation ribozyme variant]”: the self-aminoacylation is 0.619 in series [1]; 0.658 in series [2]; 0.764 in series [3]; 0.791 in series [4]; 0.627 in series [5]; 0.43 in series [6].

Regarding “CCAUACUUCAAGCAACCGGUC [Fam1B.1 aminoacylation ribozyme variant]”, the self-aminoacylation in series [1] was 1.06; in series [2], 1.06; in series [3] it was 0.74; in series [4], 1; in series [5] it was 0.894; in series [6] it was 0.794.

For “AUGUUUGCUAAUAAUCGCAAG [Fam3.1 aminoacylation ribozyme variant]”, the self-aminoacylation in series [1] amounted to 1.34; in series [2] it was 1.38; in series [3], 0.97; in series [4], 1.35; in series [5], 1.06; in series [6], 1.04.

Take “CCACACUUCAAGCAAUCGGAG [Fam1B.1 aminoacylation ribozyme variant]”: the self-aminoacylation was found to be 0.817 in series [1]; 0.874 in series [2]; 0.743 in series [3]; 1.16 in series [4]; 0.591 in series [5]; 1.03 in series [6].

With “AAGUUUGCGAAUAGUCGCUAG [Fam3.1 aminoacylation ribozyme variant]”, the self-aminoacylation in series [1] was 3.9; in series [2] it was 1.38; in series [3], 1.45; in series [4], 1; in series [5], 0.918; in series [6], 1.4.

Take “AUUAUGCUGGUCAUCGAGUGA [Fam2.1 aminoacylation ribozyme variant]”: the self-aminoacylation in series [1] was found to be 14.9; in series [2] it was 3.15; in series [3], 4.1; in series [4] it was 2.69; in series [5] it was 4.22; in series [6], 5.2.

Turning to “CUACUCCAAACAAUCGCUCUG [Fam1A.1 aminoacylation ribozyme variant]”, the self-aminoacylation in series [1] amounted to 1.32; in series [2], 1.11; in series [3] it was 0.783; in series [4], 0.884; in series [5] it was 0.949; in series [6] it was 0.596.

Consider “AUUGACGUAGGUCAUCGGGUG [Fam2.2 aminoacylation ribozyme variant]”, for which the self-aminoacylation in series [1] was found to be 30.5; in series [2] it was 2.26; in series [3] it was 4.18; in series [4], 3.22; in series [5] it was 3.27; in series [6], 4.06.

For “AUUCACCUAGGUUAUCUGGUG [Fam2.2 aminoacylation ribozyme variant]”, the self-aminoacylation turned out to be 35.2 in series [1]; 3.02 in series [2]; 5.29 in series [3]; 2.95 in series [4]; 5.96 in series [5]; 4.49 in series [6].

For the sequence “AAGUUGGCUAAUAGGCGCAAG [Fam3.1 aminoacylation ribozyme variant]”, the self-aminoacylation in series [1] amounted to 1.49; in series [2] it was 1.71; in series [3], 1.14; in series [4], 1.23; in series [5], 1.41; in series [6], 1.19.

Regarding “AUUCACCUAGGUCAUCGGAUU [Fam2.2 aminoacylation ribozyme variant]”, the self-aminoacylation in series [1] was 0.438; in series [2] it was 0.872; in series [3] it was 0.853; in series [4], 0.864; in series [5], 0.837; in series [6] it was 1.19.

For “AUUCCCCCGGUCAUCGAGUGA [Fam2.1 aminoacylation ribozyme variant]”, the self-aminoacylation in series [1] was 59.9; in series [2], 4.4; in series [3] it was 8.57; in series [4], 4.37; in series [5] it was 8.86; in series [6] it was 10.7.

As to “AAGUUUGCUAGUAGUGGCAAG [Fam3.1 aminoacylation ribozyme variant]”, the self-aminoacylation came out at 1.2 in series [1]; 0.893 in series [2]; 0.882 in series [3]; 0.814 in series [4]; 0.71 in series [5]; 0.556 in series [6].

For the sequence “AAGUUGGCUAGUAGUCGCAAG [Fam3.1 aminoacylation ribozyme variant]”, the self-aminoacylation is 2.98 in series [1]; 1.65 in series [2]; 1.21 in series [3]; 1.65 in series [4]; 1.65 in series [5]; 1.51 in series [6].

As for “CCACACUUCAAGCAAGCGGCC [Fam1B.1 aminoacylation ribozyme variant]”, the self-aminoacylation in series [1] came to 0.898; in series [2], 2.38; in series [3], 2.63; in series [4], 2.96; in series [5], 3.28; in series [6], 1.46.
